Experiment: yeast display, Sf9 membrane polyspecificity reagent, FACS + sequencing; frameworks hold sequencing errors
Method in brief: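 In a synthetic yeast display library (Saccharomyces cerevisiae BJ5465), nanobody expression was induced with galactose for 36–48 hours. FACS gates were set low and high (top ~1%) using anti-HA fluorescence for expression and streptavidin fluorescence for binding of the Sf9 membrane reagent. Each polyreactivity label is drawn from the gate of origin.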

Row | Sequence | polyreactivity (PSR sort gate)
1 | QVQLVESGGGIVQAGGSLRLSCAASGSIFQYNAMGWYRQAPGKERELVAAITRGDSTYYADSVKGRFTISRDNAKNTVYLQMNSLKPEDTAVYYCAARPRGKYDYWGQGTQVTVSS | high polyreactivity
2 | QVQLVDSGGGLVQAGGSLRLSCAASGITFNLYAMGWYRQAPGKERELVAAISNVGSTKYADSVKGRFTISRDNAKNTVYLQMTSLKPEDTAVYYCAADWDRYPDYDYWGQGTQVTVSS | low polyreactivity
3 | QVQLVESGGGLVQAGGSLRLTFAASGSTFDYYAMGWYRQAPGKERELVAGITSDGSTYYADSVKGRFTISRDNAKNTVYLQMNSLKPEDTAVYYCDVDVDPVFYTTYYYSYYYWGQGTQVTVSS | low polyreactivity
4 | QVQLVESGGGLVQAGGSLRLSCAASGRILYSYAMGWYRQEPGKERELVAAISSTGSTYYADSVKGRFTISRDNAKNTVYLQMISLKPEDTAVYYCAATFYPYQVHHYYYWGQGTQVTVSS | low polyreactivity
5 | QVQLVESGGGLVQAGGSLRLSCAASGSIFSAYAMGWYRQAPGKERELVAAITKSSVTYYADSVKGRFTISRDNAKNTVYLQMNSLKPEDTAVYYCAAYSPRPSDLYSPIAYYYWGQGTQVTVSS | low polyreactivity
6 | QVQLVESGGGLVQAGGSLRLSCAASGSTLNLYAMGWFRQAPGKEMELVAAIRSHGVSTYYADSVKGRFTISRDNAKNTVYLQMNRLKPEYTAFYYCAGVYIPGGRYTYFPYKRYDYWGQGTQVTVSS | high polyreactivity
7 | QVQLEDSGGGLVQAGGSLRLICAASGSIFGYYAMGWDRQAPGKERELVAAIDSGGSTYYADSVKGRFTISRDNAKNTVYLQMNSLKPEDTAVYYCAAGVSSFSPYDSWGQGTQVTVSS | low polyreactivity
8 | QVQLVESGGGLVQAGGSLRLSCAASGRTFYPYAMGWYRQAPGKERELVAAISYRGGSTYYADSVKGRFTISRDNAKNTVYLQMNSLKPEDTAVYYCAKRGYASGSKWDYGYWGQGTQVTVSS | high polyreactivity
9 | QVQLVESGGGLVQAGGSLRLSCAASGSIFPYNAMGWYRQAPGKERELVAAISKRGGSTYYADSVKGRFTISRDNAKNTVYFQMNSLKPEDTAVYYCAARYPPYRSWYSYDYWGQGTQVTVSS | low polyreactivity
10 | QVQLVESGGGLVQAGGSLRLSCAASGFTFKFNAMGWYRQAPGKEREFVAAISYSGGSTYYADSVKGRFTISRDNAKNTVYLQMNSVKPEDTAVYYCAARAYWYGASYYYWGQGTQVTVSS | high polyreactivity
11 | QVQLVESGGGLVQAGGSLRLSCAASGRTFYYYAMVWYRQAPGKERELVAAINSGGSTNYADSVKGRFTISRDNAKNTVYLQMNSLKPEDTAVYYCAKRAYTTVYGPVNYGFNYWGQGTQVTVSS | low polyreactivity
12 | QVQLVESGGGLVQAGGSLRLSCAASGLIFGPYAMGWYRQAPGKERELVAGISRGGSTYYADSVKGRFTISRDNAKNTVYLQMNSLKPEDTAVYYCNAYTYPPYYSKWVRYRYDYWGQGTQVTVSS | high polyreactivity
13 | QVQLVESGGGLVQAGGSLRLSCAAYGRTFIVNTMGWYRQAPGKERQLVAAITARGGRTYYADSVKGRFTISRDNAKNTVYLQMNSLKPEDTAVYYCNARTPPREAERYYWGQGTQVTVSS | low polyreactivity
14 | QVQLVESGGGLVQAGGSLRLSCAASGRTFRRYAMGWYRQAPGKERELVAAITRGTRTNYADSVKGRFTISRDNAKNTVYLQMNSLKPEDTAVYYCNARRFLYSGGAYQFYYWGQGTQVTVSS | low polyreactivity
15 | QVQLEESGGGLVQAGGSLRLSCAASGSTFTPNAMGWYRQAPGKEREFVAGIDWNDGSTYYADSVKGRFTISRDNAKNTVYLQMNSLQPEDTEVYYCNAQWVSWWSLYDYWGQGTQVTVSS | high polyreactivity
16 | QVQLVESGGGLVQAGGSLRLSCAASGRTLWYYTMGWYRQAPGKERELVADITRGTSTNYADSVKGRFTISRDNAKNTVYLQMNSLKPEDTAVYSCNRAHGRSRYSRDYDSWGQGTQVTVSS | low polyreactivity
17 | QVQLQESGGGLVQAGGRLRLSCAASGYISTFSSEMGWYRQAPGKERELVASIAPGCTTSYADSVKGRFTISRDYAKNTEFLQMNSLKPEDTAVYYCAVDYTVPASFGYWGQGSQVTVSS | high polyreactivity
18 | QVQLVESGAGLVQAGGSLRLSCAASGFTFWRYVMGTYRPAPGKERELVAGITSGGSTYYADSVKGRFTISRDNAKNTVYLQMNSLKPEDTAVYYCAARSGFRSRHKYDYWGQGTQVSVSS | high polyreactivity
19 | QVQLVESGVGLVQAGGSLSLSCAASGSTFYKYTMGWYRQAPGKESELVAAISGSGTTTYYADSVKGRFTISRDYAKNTVFLQINSLKPEDTAVYYCAAETYSPDREYGYWGLGTQVTVSS | high polyreactivity
20 | QVQLVESWGGLVQAGGSLRLSCAASGSTFVVIAMGWYRLAPGKERELVAAISTSGGTTYYADSVKGRFTISRDNAKNTVYLQMNSLKPEDTAVYYCAAGGKKRDDYWGQGTQVTVSS | high polyreactivity
21 | QVQLVESGGGLVQAGGSLRLSCAASGFIFVPYTMGWYRQAPGKERELVATINSNGGSTYYADSVKGRFTISRDNAKNTVYLQMNSLKPEDTAVYYCAAYYRWIGGRYTPYYYWGQGTQVTVSS | high polyreactivity
22 | QVQLVESGGGLVQAGGSLRLSCAASGSIIGYYAMGWYRQAPGKERELVAAITASGGSTYYADSVKGRFTISRDNAKNTVYLQMNSLKPEDTAVYHCAADRIGGPGSYLYDYWGQGTQVTVSS | low polyreactivity

Row | Sequence | polyreactivity (PSR sort gate)
23 | QVQLVESGVGLVQAGGSLRLSCAASGRIFRTYAMGWYRQAPGKERELVAAITSGGGSTYYADSVKGRFTISRDNAKNTVYLQMNSLKPEDTAVYYCAARPGIRSYPPGYGYWGQGTQVTVSS | high polyreactivity
24 | QVQLVESGVGLVQAGGSLSLSCAASGRTFYVNAMGWYRQAPGKERELVARITSGGSTYYGDSVKGRFTISRDNAKNTVYLQMNSLKPEDTAVYYCAKKYIGYQEGIHSTRRYDYWGQGTQVTVSS | low polyreactivity
25 | QVQLVDSGGGLVQAGGSLRLSCAASGRIFRRYTMGWYRQAPGKERELVAAISSGGGTNYADSVKGRFSISRDNAKNTVYLQMNSLKPEDTAVYYCNARSWLSRGYGYWGQGTQVTVSS | high polyreactivity
26 | QDQHVESGGGLVQAGGSLRLICAASGNTFGWYAMGWYRQAPGKEREFVADISWSGGSTYYADSVKGRFTISRDNAKNTVYLQMNSLKQEDTAVYYCNAVWLYYWHADQYFEYDYWGQGTQVTVSS | high polyreactivity
27 | QVQLVESGGGLVQAGGSLRLSCAASGLIFDRNAMGWYRQAPGKERELVAAITYSGSRTYYADSVKGRFTISRDNAKNTVYLQMNSLKPEDTAVYYCAARHRYSAGTEYNYWGQGTQVTVSS | high polyreactivity
28 | QVQLVESGGGLVQAGGSLRLSCAASGFIFYYYAMGWYRQAPGKERELVAAINRRGGSTYYADSVKGRFTISRDNAKNTVYLQMNSLKPEDTAVYYCAATYDGTFDYWGQGTQVTVSS | high polyreactivity
29 | QVQLVESGGGLVQAGGSLRLSCAASGFIFSYYAMGWYRQAPGKERELVAAISSSGGTTYADSVKGRFTISRDNAKNTVYLQMNSLKPEDTAVYYCARVQYWFYKPMYYWGQGTQVNVSS | high polyreactivity
30 | QVQLVESGGGLVQAGGSLRLSCAASGRTSSIYTMGWYRQAPGKERELVAAINSGGRTYYADSVKGRFTISRDNAKNTVYLQMNSLKPEDTAVYYCAARRSTYYWGGVTYTYYWGQGTQVTVSS | high polyreactivity
31 | QVQLVESGGGLVQAGGSLRLSCAASGSIFYFNAMGWYRQATGKERELVADISWSGGDSTYYADSVKGRFTISRDNAKNTVYLQMNSLKPEDTAVYYCAADLSYPDWSRYQWDMDYWGQGTQVTVSS | low polyreactivity
32 | QFQLVESGGGLVQAGGSLRLSCAASGLTFVAYAMGWYRQAPGKEMELVAAITRRGGSTYYADSVKGRFTISRDNEKNPVSLQMNSLKPEDTAVYYCAAEGWYSRNPGFDYWGQGTQVTVSS | high polyreactivity
33 | QVQLVESGGGLVQAGGSLRLSCAASGNTFAENDMGWYRQAPGKERELVAAITYSGGDTYYADSVKGRFTISRDNAKNTVYLQMNSLKPEDTAVYYCAADNGSKEFDYWGQGTQVTVSS | low polyreactivity
34 | QVQLVESGGGLVQAGGSLRLSCAASGIIFGDYAMGWYRQAPGKEMELVAAITWSGGSTYYADSVKGRFTISRDNAKNTVYLQMNSLKPEDTAFYYCNADDDGRVSSTIVEYWGQGTQVTVSS | low polyreactivity
35 | QVQLVESGGCLVQAGGSLRLSCAASGRTFSPNAMGWYRQAPGKERELVAAISWISGGRTYYADSVKGRFTISRDNAKNTVYLQMNSLKPEDTAVYYCAAEYYYTYGYWGQGTQVTVSS | high polyreactivity
36 | QVQLVESGGGLVQAGGSLRLSCAASGLTLAPYAMGWYRQAPGKERELVAAITFSGGSTYYADSVKGRLSISRDNAKNTVYLQMNSLKPEDTAVYYCARDTWAYKNGYPYYSWGQGTQVTVSS | low polyreactivity
37 | QVQLVESGGGLVQAGGSLRLSCAASGSTFCGYAMGWYRQAPGKERELVAAITNGGSTYADSVKGRFTISRDNAKNTVYLQMNSLKPEDTAVYYCNTETGPSPVPVYDTEVDSWGQRTQVTVSS | low polyreactivity
38 | QVQLVESGGGLVQAGGSLRLICAASGSIFGYNAMGWYRQAPGKERELVAAIRISTDNTYYADSVKGRFTISRDNAKNTVYLQMNSLKPEDTAVYYCAASSQTQYGDNYWGQGTQVTVSS | high polyreactivity
39 | QVQLVESGGGLVQAGGSLRLSCAASGRTFRSYTMGWYRQAPGKERELVARISSSGGRTYYADSVKGRFTISRDNAKNTVYLQMNSLKPEDTAVYYCAAAIVSYGRNDYWGQGTQVTVSS | high polyreactivity
40 | QVQLVESGGGLVQAGGTLRLSCAASGGTFVSRAMGWYRQAPGKERELVAAISFSGDSTYYADSVKGRFTISRDNAKNTVYLQMNSLKPEDTAVYYCRFYSYWSWLGREYDYWGQGTQVTVSS | low polyreactivity
41 | QVQPVESGGGLVQAGGSLRLSCAASGSTFTVNAMRWYRQPPGNERELVAAITFSGTSTYYADSVKGRFTISRDNAKNTVYLQMNSLKPEDTAVYYCNAVVWGYSKSLGDTRTKYEYWGQVTQVTVSS | high polyreactivity
42 | QVQLVESGGGLVQAGGSLRLSCAASGFTFSYNAMGWYRQAPGKERELVAAISSGGRTHYADSVKGRFTISRDNAKNTVYLQMNILKPEDTAVYYCNAQKYPRYSRTSGRNYNYWGQGTQVTVSS | high polyreactivity
43 | QVQLVESGGGLVQAGGSLRLSCAASGSTFYSYAMVWYRPARGPERELVAAITSGGRTYYADSVKGRFTISRDNAKNTVYLQMNCLKPEDTAVYYCSADLPVFGGYRSNRFGYWGQGTQVTVSS | high polyreactivity
